Results reported in paper PMC6212840.
Where two headings read alike, the source gives them in different places.

Key:
[1] = molecular target: TbMP18-FL (aa 19-164) (Trypanosoma brucei); assay: SEC
[2] = molecular target: TbMP18-FL (aa 19-164) (Trypanosoma brucei)

With TbMP18-FL (aa 19-164) (natural protein) the stoichiometry N [1] was 4.

Molecule TbMP24-FL (aa 47-246) (natural protein) has a stoichiometry N [2] of 1.1 and a stoichiometry N [1] of 1.5.

B1: TbMP63-OB (aa 472-587) (domain or fragment)
chain: SAIGASWAETELIPHAQCVSNITIVGRVLDVSQASENVSHVTVFVEGERSGEEETLTLCCFGEVSQKIRGTLKRNATIFASGTLRLHPVYEASNNKYYVSPVVHVSMPTGTLAVIT
B1 was tested, and the stoichiometry N [2] was 0.67.
